Here are results for four proteins from FireProtDB.

Where “and” joins values, the source holds several entries; their conditions need not be identical. Equal values may be shown once.

For this series the following is noted: whole UniProt chain shown.
Setting [1] is: Escherichia coli (strain K12), pH 7, 25 °C, Thermal, DSC, tetra-borate 1 mM, reversible: yes(70-95%).
Setting [2] is: Escherichia coli (strain K12), pH 7, Thermal, CD, tetra-borate 1 mM, reversible: yes(70-95%).
Setting [3] is: Escherichia coli (strain K12), pH 7, Thermal, DSC, tetra-borate 1 mM, reversible: yes(70-95%).
The mark [4] stands for this setting: Escherichia coli (strain K12), pH 7.8, 25 °C, Urea, CD, Potassium phosphate 10 mM, transition: 3.
Where [5] appears, read: Escherichia coli (strain K12), pH 7.8, 25 °C, Urea, CD, Potassium phosphate 10 mM.
[6] abbreviates: Escherichia coli (strain K12), pH 9.3, 25 °C, Thermal, DSC, tetra-borate 1 mM, reversible: yes(70-95%).
Setting [7] is: Escherichia coli (strain K12), pH 9.3, Thermal, CD, tetra-borate 1 mM, reversible: yes(70-95%).
[8] abbreviates: Escherichia coli (strain K12), pH 9.3, Thermal, DSC, tetra-borate 1 mM, reversible: yes(70-95%).
The mark [9] stands for this setting: Escherichia coli, pH 6, 19 °C, GdnHCl, CD, sodium phosphate 10 mM, sodium sulphate 10 mM, reversible: yes.
Setting [10] is: Escherichia coli, pH 6, 25 °C, GdnHCl, CD, sodium phosphate 10 mM, sodium sulphate 10 mM, reversible: yes.
Where [11] appears, read: Escherichia coli, pH 6, 25 °C, Thermal, DSC, Sodium phosphate 10 mM, Na2SO4 10 mM, reversible: yes.
Setting [12] is: Escherichia coli, pH 6, Thermal, DSC, Sodium phosphate 10 mM, Na2SO4 10 mM, reversible: yes.

B1: Peptidyl-prolyl cis-trans isomerase B wild type, P23869 (protein)
chain: MVTFHTNHGDIVIKTFDDKAPETVKNFLDYCREGFYNNTIFHRVINGFMIQGGGFEPGMKQKATKEPIKNEANNGLKNTRGTLAMARTQAPHSATAQFFINVVDNDFLNFSGESLQGWGYCVFAEVVDGMDVVDKIKGVATGRSGMHQDVPKEDVIIESVTVSE
For the protein B1, the unfolding free energy (Escherichia coli (strain K12), pH 8, 15 °C, NaCl, Fluorescence, Tris-HCl 0.1 M, NaCl 2.0 M, reversible: yes) stood at 2.51 kcal/mol.

B2: Tryptophan synthase alpha chain wild type, P0A877 (protein)
chain: MERYESLFAQLKERKEGAFVPFVTLGDPGIEQSLKIIDTLIEAGADALELGIPFSDPLADGPTIQNATLRAFAAGVTPAQCFEMLALIRQKHPTIPIGLLMYANLVFNKGIDEFYAQCEKVGVDSVLVADVPVEESAPFRQAALRHNVAPIFICPPNADDDLLRQIASYGRGYTYLLSRAGVTGAENRAALPLNHLVAKLKEYNAAPPLQGFGISAPDQVKAAIDAGAAGAISGSAIVKIIEQHINEPEKMLAALKVFVQPMKAATRS
With B2, the unfolding free energy is, setting by setting: (Escherichia coli (strain K12), pH 7, 25 °C, GdnHCl, CD, Potassium phosphate 0.01 M, reversible: yes) 9.3 kcal/mol; (Escherichia coli (strain K12), pH 7, 25 °C, Thermal, CD, tetra-borate 1 mM, reversible: yes(70-95%)) 6.7 kcal/mol; under setting [1], 8.4 kcal/mol; (Escherichia coli (strain K12), pH 7, 25.8 °C, GdnHCl, CD, Potassium phosphate 0.01 M, reversible: yes) 8.8 kcal/mol; under setting [4], 7.9 kcal/mol and 5.4 kcal/mol; under setting [5], 5.91 kcal/mol. Moreover, the unfolding free energy is, setting by setting: (Escherichia coli (strain K12), pH 9.3, 25 °C, Thermal, CD, tetra-borate 1 mM, reversible: yes(70-95%)) 3.9 kcal/mol; under setting [6], 5.8 kcal/mol. The “unfolding enthalpy (calorimetric)” value was found to be 23.2 kcal/mol under setting [1] and 23.2 kcal/mol under setting [6]. The Tm (commonly the temperature at which the thermal transition is half complete) runs as follows: under setting [2], 61.2 °C; under setting [3], 62.4 °C; under setting [7], 50.4 °C; under setting [8], 54.3 °C. For the same protein, the “heat capacity change of unfolding” value by setting is: under setting [2], 2.45 kcal/mol/K; under setting [3], 2.87 kcal/mol/K; under setting [7], 2.45 kcal/mol/K; under setting [8], 2.87 kcal/mol/K. The “unfolding enthalpy (van 't Hoff)” value was 19.7 kcal/mol under setting [2] and 19.7 kcal/mol under setting [7]. Further, the denaturant m value is, setting by setting: under setting [4], 2.9 kcal/mol/M and 1.3 kcal/mol/M; under setting [5], 2.23 kcal/mol/M.

B3: Regulatory protein rop wild type, P03051 (protein)
chain: MTKQEKTALNMARFIRSQTLTLLEKLNELDADEQADICESLHDHADELYRSCLARFGDDGENL
Turning to B3, under setting [9], the denaturant m value stood at 2.75 kcal/mol/M, the “denaturant midpoint (higher = more stable)” value was 3.3 M and the unfolding free energy worked out at 16 kcal/mol. Further, under setting [10], the denaturant m value came to 3.06 kcal/mol/M, the “denaturant midpoint (higher = more stable)” value came to 3.23 M and the unfolding free energy was 16.9 kcal/mol. In addition, under setting [11], the “heat capacity change of unfolding” value was 2.46 kcal/mol/K and the unfolding free energy worked out at 17.1 kcal/mol. Under setting [12], the Tm turned out to be 71 °C, the “heat capacity change of unfolding” value came to 2.46 kcal/mol/K, the “unfolding enthalpy (calorimetric)” value stood at 139 kcal/mol and the “unfolding enthalpy (van 't Hoff)” value was determined as 130 kcal/mol. Besides, the Tm (Escherichia coli, pH 7, Thermal, CD, Sodium phosphate 100 mM, NaCl 200 mM) was 64 °C.

B4: Lactose operon repressor wild type, P03023 (protein)
chain: MKPVTLYDVAEYAGVSYQTVSRVVNQASHVSAKTREKVEAAMAELNYIPNRVAQQLAGKQSLLIGVATSSLALHAPSQIVAAIKSRADQLGASVVVSMVERSGVEACKAAVHNLLAQRVSGLIINYPLDDQDAIAVEAACTNVPALFLDVSDQTPINSIIFSHEDGTRLGVEHLVALGHQQIALLAGPLSSVSARLRLAGWHKYLTRNQIQPIAEREGDWSAMSGFQQTMQMLNEGIVPTAMLVANDQMALGAMRAITESGLRVGADISVVGYDDTEDSSCYIPPLTTIKQDFRLLGQTSVDRLLQLSQGQAVKGNQLLPVSLVKRKTTLAPNTQTASPRALADSLMQLARQVSRLESGQ
In the case of B4, the melting temperature (Tm) (Escherichia coli (strain K12), pH 7.4, Thermal, CD, phosphate 5 mM, reversible: no) was 53 °C.
